We go through two molecules from patent publication US20240115667A1 (priority 2020, published 2024).

“Also recorded” adds a separate entry of the source.

Data set [1] relates to SARS-CoV-2. The class given is cell-based. As to conditions: 400 μg/ml lactoferrin, 48 h after infection.
The test system of data set [2] is SARS-CoV-2.

B1: lactoferrin: lactoferrin from human milk; iron-binding ~80 kDa glycosylated protein (protein, UniProt P02788 20-710, looked up)
Lactotransferrin: GRRRSVQWCAVSQPEATKCFQWQRNMRKVRGPPVSCIKRDSPIQCIQAIAENRADAVTLDGGFIYEAGLAPYKLRPVAAEVYGTERQPRTHYYAVAVVKKGGSFQLNELQGLKSCHTGLRRTAGWNVPIGTLRPFLNWTGPPEPIEAAVARFFSASCVPGADKGQFPNLCRLCAGTGENKCAFSSQEPYFSYSGAFKCLRDGAGDVAFIRESTVFEDLSDEAERDEYELLCPDNTRKPVDKFKDCHLARVPSHAVVARSVNGKEDAIWNLLRQAQEKFGKDKSPKFQLFGSPSGQKDLLFKDSAIGFSRVPPRIDSGLYLGSGYFTAIQNLRKSEEEVAARRARVVWCAVGEQELRKCNQWSGLSEGSVTCSSASTTEDCIALVLKGEADAMSLDGGYVYTAGKCGLVPVLAENYKSQQSSDPDPNCVDRPVEGYLAVAVVRRSDTSLTWNSVKGKKSCHTAVDRTAGWNIPMGLLFNQTGSCKFDEYFSQSCAPGSDPRSNLCALCIGDEQGENKCVPNSNERYYGYTGAFRCLAENAGDVAFVKDVTVLQNTDGNNNEAWAKDLKLADFALLCLDGKRKPVTEARSCHLAMAPNHAVVSRMDKVERLKQVLLHQQAKFGRNGSDCPDKFCLFQSETKNLLFNDNTECLARLHGKTTYEKYLGPQYVAGITNLKKCSTSPLLEACEFLRK
B1: the “Decrease of N-protein RNA copies” value in the data set on SARS-CoV-2 [1] amounted to 28.0%.

B2: Unsaturated iron lactoferrin: lactoferrin that has been depleted of iron; also termed reduced iron lactoferrin or apolactoferrin (protein, UniProt P02788 20-710, looked up)
Lactotransferrin: B1 Lactotransferrin
modifications: iron-depleted apolactoferrin
As for B2, in the data set with SARS-CoV-2 [2], the “Inhibition of SARS-CoV-2 infection in vitro” value is given as “directly inhibited SARS-CoV-2 infection more effectively compared to hololactoferrin; also recorded: inhibited SARS-CoV-2 infection when administered alone”. In addition, in the data set on SARS-CoV-2 [2] (MOI 0.3), the “Reduction of virus-induced cytotoxicity” value is “more effective than recombinant lactoferrin”.
